From paper doi:10.1101/2020.12.15.422995 come the findings set out here.

The data set has as its target T1, Fur (PerR homolog), 17.4 kDa (Bacillus subtilis, UniProt P54574 1-149).
T1 sequence: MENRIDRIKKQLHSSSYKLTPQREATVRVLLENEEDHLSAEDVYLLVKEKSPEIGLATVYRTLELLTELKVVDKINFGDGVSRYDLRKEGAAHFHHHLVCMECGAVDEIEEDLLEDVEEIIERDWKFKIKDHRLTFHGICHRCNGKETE
Put plainly: EMSA. Background: A gel shift assay detects complexes by their altered migration in electrophoresis.

B1: 54-bp degenerate sloR promoter (Deg_sloR_CC1) (dsDNA)
DNA 1: CCTGATAGGATGATGGATAATTAAGGCTTTTATCCACTTTTTACTGACATTTTG
DNA 2: CAAAATGTCAGTAAAAAGTGGATAAAAGCCTTAATTATCCATCATCCTATCAGG
As to B1, the binding signal was 63 % band shift at 60 nM Fur (relative to 400 nM).
